The results in this text go back to the supplement of paper PMC10065799, “High-throughput profiling of sequence recognition by tyrosine kinases and SH2 domains using bacterial peptide display” (eLife, 2023).

One series addresses c-Src SH2. Nature of the series: SH2 binding enrichment of the phosphorylated peptide, bacterial display (enrichment ratio); higher = better substrate or ligand; peptides without Tyr show the background.
A further series deals with SHP2-C SH2. Described as above.
A further series concerns the target Grb2 SH2 (UniProt P62993). The series is described as above.
The target in the next series is FGFR1 (UniProt P11362). Nature of the series: phosphorylation enrichment, bacterial display (enrichment ratio); higher = better substrate or ligand; peptides without Tyr show the background.
For the next series, the target named is Jak2 (UniProt O60674). Described as above.
The target of another series is EPHB2 (UniProt P29323). Described as above.
For a further series, the system named is c-Abl (mouse). The series is described as above.
The target in the next series is MERTK (UniProt Q12866). The series is described as above.
A further series deals with FGFR3 (UniProt P22607). The description is as above.
The next series deals with AncSZ. The description is as above.
In another series the target is Hck (UniProt P08631). The series is described as above.
The next series concerns the target Fes (UniProt P07332). The series is described as above.
A further series concerns the target EPHB1 (UniProt P54762). The series is described as above.
The next series deals with Fyn (UniProt P06241). Described as above.
The subject of another series is c-Src. Described as above.
The test system of a further series is Fer (mouse). The description is as above.
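For SH2 binding enrichment of the phosphorylated peptide, bacterial display in this document: peptide library displayed on the E. coli surface as eCPX fusions, selected cells deep-sequenced, score is each peptide's frequency after selection divided by its frequency in the input.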
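For phosphorylation enrichment, bacterial display in this document: 11-residue human phosphosite peptides and single-mutation variants displayed on the E. coli surface, counted by deep sequencing, each peptide's frequency after selection divided by its frequency in the unselected input library; frequency after pTyr selection over input frequency; kinase dosed for 20-30% of maximal phosphorylation in three min.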

Hck, sequence (P08631 whole entry, looked up): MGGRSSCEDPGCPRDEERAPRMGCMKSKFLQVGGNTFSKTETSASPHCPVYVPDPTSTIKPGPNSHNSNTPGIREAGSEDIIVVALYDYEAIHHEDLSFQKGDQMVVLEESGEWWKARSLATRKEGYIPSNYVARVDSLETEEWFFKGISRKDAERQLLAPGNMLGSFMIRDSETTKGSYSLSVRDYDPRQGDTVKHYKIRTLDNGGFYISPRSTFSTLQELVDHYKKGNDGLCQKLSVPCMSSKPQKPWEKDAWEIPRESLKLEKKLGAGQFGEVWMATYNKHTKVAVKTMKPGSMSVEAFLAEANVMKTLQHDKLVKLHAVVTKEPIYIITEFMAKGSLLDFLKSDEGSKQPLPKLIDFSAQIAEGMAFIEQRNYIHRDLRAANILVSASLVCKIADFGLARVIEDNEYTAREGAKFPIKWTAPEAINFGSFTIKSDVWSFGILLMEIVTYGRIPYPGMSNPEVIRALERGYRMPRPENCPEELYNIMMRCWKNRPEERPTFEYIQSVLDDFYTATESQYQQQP
FGFR3, sequence (P22607 whole entry, looked up): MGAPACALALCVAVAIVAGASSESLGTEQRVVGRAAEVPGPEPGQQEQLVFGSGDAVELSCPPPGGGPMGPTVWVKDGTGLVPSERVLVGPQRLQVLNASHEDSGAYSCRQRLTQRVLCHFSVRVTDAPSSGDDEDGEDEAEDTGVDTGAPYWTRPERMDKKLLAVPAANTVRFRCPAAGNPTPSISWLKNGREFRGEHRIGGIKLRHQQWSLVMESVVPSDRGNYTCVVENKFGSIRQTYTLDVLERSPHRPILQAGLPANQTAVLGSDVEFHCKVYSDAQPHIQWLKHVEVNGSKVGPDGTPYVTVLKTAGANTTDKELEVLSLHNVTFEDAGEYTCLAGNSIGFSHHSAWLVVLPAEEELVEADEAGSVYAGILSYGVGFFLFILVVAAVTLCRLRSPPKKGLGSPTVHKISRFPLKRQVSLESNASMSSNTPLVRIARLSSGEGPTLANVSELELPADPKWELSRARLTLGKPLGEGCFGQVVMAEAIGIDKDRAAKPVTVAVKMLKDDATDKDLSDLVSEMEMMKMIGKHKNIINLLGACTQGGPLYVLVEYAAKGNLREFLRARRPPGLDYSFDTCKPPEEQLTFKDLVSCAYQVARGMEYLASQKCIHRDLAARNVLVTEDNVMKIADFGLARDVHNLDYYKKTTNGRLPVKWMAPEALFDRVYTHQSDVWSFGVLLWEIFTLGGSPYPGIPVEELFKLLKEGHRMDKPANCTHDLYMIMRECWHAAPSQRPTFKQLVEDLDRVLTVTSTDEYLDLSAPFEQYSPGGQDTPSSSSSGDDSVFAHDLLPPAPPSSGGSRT
EPHB1, sequence (P54762 whole entry, looked up): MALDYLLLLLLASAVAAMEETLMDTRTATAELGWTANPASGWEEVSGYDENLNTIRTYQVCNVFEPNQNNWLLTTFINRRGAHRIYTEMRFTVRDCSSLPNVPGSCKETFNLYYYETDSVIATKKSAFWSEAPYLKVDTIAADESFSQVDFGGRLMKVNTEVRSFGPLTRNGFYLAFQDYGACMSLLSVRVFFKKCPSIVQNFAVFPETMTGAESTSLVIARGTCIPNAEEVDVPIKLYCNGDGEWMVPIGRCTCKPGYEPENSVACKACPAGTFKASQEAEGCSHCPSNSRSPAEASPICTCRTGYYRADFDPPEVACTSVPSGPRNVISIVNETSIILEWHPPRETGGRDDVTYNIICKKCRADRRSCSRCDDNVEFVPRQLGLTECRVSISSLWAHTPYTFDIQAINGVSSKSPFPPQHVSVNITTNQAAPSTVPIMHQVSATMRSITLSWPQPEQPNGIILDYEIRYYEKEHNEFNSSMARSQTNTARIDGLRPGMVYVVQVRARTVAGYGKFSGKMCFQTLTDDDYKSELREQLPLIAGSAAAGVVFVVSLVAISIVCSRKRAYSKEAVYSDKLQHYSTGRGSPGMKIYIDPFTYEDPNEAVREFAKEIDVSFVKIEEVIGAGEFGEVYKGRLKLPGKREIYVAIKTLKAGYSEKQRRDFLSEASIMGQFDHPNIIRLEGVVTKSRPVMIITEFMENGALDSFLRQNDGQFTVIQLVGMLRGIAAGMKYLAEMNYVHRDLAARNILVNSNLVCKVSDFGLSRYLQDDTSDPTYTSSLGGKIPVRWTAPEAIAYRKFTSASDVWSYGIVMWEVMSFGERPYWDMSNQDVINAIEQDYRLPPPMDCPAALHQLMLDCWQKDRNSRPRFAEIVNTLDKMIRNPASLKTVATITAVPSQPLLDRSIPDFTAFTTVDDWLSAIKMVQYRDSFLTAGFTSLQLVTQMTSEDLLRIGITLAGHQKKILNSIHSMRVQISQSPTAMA
Jak2, sequence (O60674 whole entry, looked up): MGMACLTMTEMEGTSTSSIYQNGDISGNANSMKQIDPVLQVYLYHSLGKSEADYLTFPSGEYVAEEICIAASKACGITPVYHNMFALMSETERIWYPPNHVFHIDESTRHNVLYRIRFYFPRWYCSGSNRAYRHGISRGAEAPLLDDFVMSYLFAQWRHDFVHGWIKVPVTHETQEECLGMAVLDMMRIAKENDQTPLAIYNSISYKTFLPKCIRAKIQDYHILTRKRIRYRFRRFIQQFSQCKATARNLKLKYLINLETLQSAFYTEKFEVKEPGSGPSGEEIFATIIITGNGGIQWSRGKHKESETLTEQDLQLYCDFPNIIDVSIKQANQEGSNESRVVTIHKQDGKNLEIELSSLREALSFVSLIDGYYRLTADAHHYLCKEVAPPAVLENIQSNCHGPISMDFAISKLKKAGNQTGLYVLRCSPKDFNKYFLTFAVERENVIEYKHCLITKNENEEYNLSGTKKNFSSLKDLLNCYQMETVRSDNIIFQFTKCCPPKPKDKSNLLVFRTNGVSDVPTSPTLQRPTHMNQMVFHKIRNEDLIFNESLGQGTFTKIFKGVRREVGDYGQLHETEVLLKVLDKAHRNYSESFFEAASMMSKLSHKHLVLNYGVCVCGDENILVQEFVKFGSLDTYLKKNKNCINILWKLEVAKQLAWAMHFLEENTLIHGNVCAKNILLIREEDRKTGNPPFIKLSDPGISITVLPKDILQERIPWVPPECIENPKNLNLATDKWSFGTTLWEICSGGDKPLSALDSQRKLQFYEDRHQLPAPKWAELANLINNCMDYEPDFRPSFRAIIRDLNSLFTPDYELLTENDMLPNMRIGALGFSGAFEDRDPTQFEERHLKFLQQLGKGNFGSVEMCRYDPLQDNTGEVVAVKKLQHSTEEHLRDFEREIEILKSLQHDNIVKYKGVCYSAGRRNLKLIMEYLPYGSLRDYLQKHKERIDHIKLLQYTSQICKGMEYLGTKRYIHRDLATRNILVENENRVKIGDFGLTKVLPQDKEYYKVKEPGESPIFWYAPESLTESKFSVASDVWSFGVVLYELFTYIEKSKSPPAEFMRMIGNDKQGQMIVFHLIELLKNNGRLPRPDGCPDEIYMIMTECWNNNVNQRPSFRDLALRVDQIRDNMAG
MERTK, sequence (Q12866 whole entry, looked up): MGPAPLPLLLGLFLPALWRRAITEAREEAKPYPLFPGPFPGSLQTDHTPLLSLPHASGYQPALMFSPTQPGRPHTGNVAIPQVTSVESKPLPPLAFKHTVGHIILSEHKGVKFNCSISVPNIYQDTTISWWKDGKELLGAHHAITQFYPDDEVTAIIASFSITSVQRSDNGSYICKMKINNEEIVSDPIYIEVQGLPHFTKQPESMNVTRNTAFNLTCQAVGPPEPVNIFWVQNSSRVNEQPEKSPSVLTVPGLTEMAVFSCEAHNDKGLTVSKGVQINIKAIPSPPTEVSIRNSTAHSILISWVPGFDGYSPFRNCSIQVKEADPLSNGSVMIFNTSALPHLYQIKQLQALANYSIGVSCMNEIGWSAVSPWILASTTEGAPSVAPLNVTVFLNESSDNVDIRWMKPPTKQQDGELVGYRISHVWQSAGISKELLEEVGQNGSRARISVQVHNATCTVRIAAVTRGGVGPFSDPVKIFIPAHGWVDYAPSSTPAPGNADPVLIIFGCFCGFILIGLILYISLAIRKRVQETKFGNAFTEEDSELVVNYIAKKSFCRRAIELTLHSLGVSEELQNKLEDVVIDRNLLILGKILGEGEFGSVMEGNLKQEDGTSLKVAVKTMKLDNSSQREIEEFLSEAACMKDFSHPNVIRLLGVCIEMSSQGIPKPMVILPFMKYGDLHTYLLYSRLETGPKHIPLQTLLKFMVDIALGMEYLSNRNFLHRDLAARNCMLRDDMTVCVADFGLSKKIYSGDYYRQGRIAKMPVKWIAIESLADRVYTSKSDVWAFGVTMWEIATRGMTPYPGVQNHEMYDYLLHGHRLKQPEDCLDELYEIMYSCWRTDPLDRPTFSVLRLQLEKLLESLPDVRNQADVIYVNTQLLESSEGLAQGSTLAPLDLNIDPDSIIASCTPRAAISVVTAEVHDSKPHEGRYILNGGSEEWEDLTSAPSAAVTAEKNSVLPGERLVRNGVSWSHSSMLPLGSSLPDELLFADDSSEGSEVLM
Fyn, sequence (P06241 whole entry, looked up): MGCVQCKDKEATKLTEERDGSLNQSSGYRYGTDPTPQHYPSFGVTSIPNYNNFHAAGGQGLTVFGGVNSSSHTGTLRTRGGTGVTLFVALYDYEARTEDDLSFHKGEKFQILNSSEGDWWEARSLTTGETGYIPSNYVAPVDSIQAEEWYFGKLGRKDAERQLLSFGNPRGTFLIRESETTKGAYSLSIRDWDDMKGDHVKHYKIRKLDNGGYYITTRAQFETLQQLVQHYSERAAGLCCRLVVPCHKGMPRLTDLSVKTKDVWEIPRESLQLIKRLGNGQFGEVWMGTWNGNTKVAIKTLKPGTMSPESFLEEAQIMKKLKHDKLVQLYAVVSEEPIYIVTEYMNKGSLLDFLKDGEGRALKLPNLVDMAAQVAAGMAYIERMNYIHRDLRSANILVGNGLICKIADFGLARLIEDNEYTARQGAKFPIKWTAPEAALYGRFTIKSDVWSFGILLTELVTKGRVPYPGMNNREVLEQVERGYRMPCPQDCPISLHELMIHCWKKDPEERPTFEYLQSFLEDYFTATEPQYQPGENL

Regarding AKNKDYMSIIR [GNE_Y197], the SH2 binding enrichment with c-Src SH2 is 0.774; with SHP2-C SH2, 0.879; in the series with Grb2 SH2, 0.9. Besides, the phosphorylation enrichment with FGFR1 came out at 0.432; in the series with Jak2 it was 0.706; with EPHB2, 0.553; with c-Abl (mouse) it was 0.676; in the series with MERTK it was 0.468; in the series with FGFR3, 0.585. Besides, the phosphorylation enrichment in the series on AncSZ amounted to 0.585; with Hck, 0.483; with Fes, 0.677; with EPHB1, 0.851; in the series with Fyn, 0.409; in the series with c-Src it was 0.452. Further, the phosphorylation enrichment in the series on Fer (mouse) is 0.473.
In the case of AKQVGYENAGT [PC_Y304], the SH2 binding enrichment with c-Src SH2 was determined as 1.19; in the series with SHP2-C SH2, 0.646; with Grb2 SH2, 4.11. The phosphorylation enrichment with FGFR1 was found to be 0.394; in the series with Jak2 it was 0.467; in the series with EPHB2, 0.446; in the series with c-Abl (mouse), 0.447; with MERTK it was 0.432; with FGFR3, 0.549. In addition, the phosphorylation enrichment in the series on AncSZ is 0.633; with Hck, 0.464; with Fes, 0.614; with EPHB1, 0.511; in the series with Fyn, 0.439; with c-Src, 0.433. For the same sequence, in the series with Fer (mouse), the phosphorylation enrichment turned out to be 0.461.
Consider ALAHKYHGGGG [HBB_Y146], for which the SH2 binding enrichment with c-Src SH2 was 0.43; with SHP2-C SH2, 0.63; in the series with Grb2 SH2, 0.756. The phosphorylation enrichment with FGFR1 turned out to be 0.537; in the series with Jak2 it was 0.503; with EPHB2, 0.349; in the series on c-Abl (mouse) it was 0.534; in the series with MERTK it was 0.461; with FGFR3, 0.343. The phosphorylation enrichment in the series on AncSZ was determined as 0.621; with Hck, 0.417; with Fes, 0.578; with EPHB1, 0.333; with Fyn it was 0.426; in the series on c-Src, 0.383. Besides, in the series with Fer (mouse), the phosphorylation enrichment came out at 0.361.
ALAHKYLGGGG [HBB_Y146_H147L]: the SH2 binding enrichment with c-Src SH2 came out at 0.503; with SHP2-C SH2 it was 0.608; with Grb2 SH2 it was 1.01. In addition, the phosphorylation enrichment with FGFR1 came to 0.307; with Jak2, 0.464; with EPHB2, 0.387; in the series with c-Abl (mouse) it was 0.289; in the series with MERTK it was 0.407; with FGFR3 it was 0.325. The phosphorylation enrichment worked out at 0.378 in the series with AncSZ; 0.347 in the series with Hck; 0.389 with Fes; 0.324 with EPHB1; 0.366 in the series with Fyn; 0.278 with c-Src. Also, the phosphorylation enrichment with Fer (mouse) was determined as 0.269.
In the case of ALTDNYMFLVI [HAGH_Y61_YF], the values for the SH2 binding enrichment with c-Src SH2, with SHP2-C SH2 and with Grb2 SH2 were 0.366, 0.441 and 0.68, respectively. For the same sequence, the phosphorylation enrichment in the series with FGFR1 amounted to 7.04; in the series with Jak2, 1.49; with EPHB2, 6.12; in the series with c-Abl (mouse) it was 1.22; with MERTK it was 1.97; with FGFR3, 5.16. Also, the phosphorylation enrichment in the series on AncSZ came to 1.37; with Hck it was 0.869; in the series with Fes, 1.62; in the series with EPHB1, 8.31; in the series with Fyn it was 0.615; in the series on c-Src, 0.733. Further, the phosphorylation enrichment with Fer (mouse) amounted to 2.88.
As for ALVDTYCRHNY [HLA-DRB1_Y107_A103L], the values for the SH2 binding enrichment with c-Src SH2, with SHP2-C SH2 and with Grb2 SH2 were 0.582, 0.79 and 0.911, respectively. Moreover, the phosphorylation enrichment with FGFR1 came to 0.401; with Jak2, 0.456; with EPHB2, 0.486; in the series on c-Abl (mouse), 0.515; with MERTK it was 0.618; in the series with FGFR3 it was 0.501. In addition, the phosphorylation enrichment with AncSZ was 0.474; in the series with Hck it was 0.549; with Fes, 0.709; in the series with EPHB1, 0.439; in the series with Fyn, 0.46; in the series with c-Src, 0.432. Besides, the phosphorylation enrichment in the series on Fer (mouse) is 0.442.
As for ALWFIYLHTRS [ENG_Y614_S615L_YF], the SH2 binding enrichment in the series with c-Src SH2 was 0.564; with SHP2-C SH2 it was 0.882; with Grb2 SH2 it was 0.875. Further, the phosphorylation enrichment stood at 0.409 with FGFR1; 1.13 with Jak2; 0.583 in the series with EPHB2; 0.979 with c-Abl (mouse); 0.422 with MERTK; 0.778 with FGFR3. Also, the phosphorylation enrichment in the series with AncSZ turned out to be 1.2; in the series with Hck, 0.428; with Fes it was 1.37; with EPHB1 it was 0.585; in the series with Fyn, 0.433; in the series with c-Src, 0.411. Besides, the phosphorylation enrichment with Fer (mouse) came to 0.485.
As for APGDAYGDAGY [SYP_Y250], the SH2 binding enrichment with c-Src SH2 was 0.464; in the series with SHP2-C SH2, 0.616; with Grb2 SH2 it was 0.815. In addition, the phosphorylation enrichment with FGFR1 came to 0.494; with Jak2, 0.765; with EPHB2 it was 0.662; with c-Abl (mouse), 0.616; in the series with MERTK it was 0.442; in the series with FGFR3, 0.615. Also, the phosphorylation enrichment with AncSZ was determined as 0.891; in the series with Hck it was 0.463; in the series with Fes, 0.871; with EPHB1, 0.541; with Fyn, 0.413; with c-Src it was 0.405. Moreover, the phosphorylation enrichment in the series with Fer (mouse) was found to be 0.512.
